Measured values published in US12698494.
Positions count from the first letter of the chain named. Names may count otherwise.

T1: FRETS-VWF73 fluorogenic substrate, P04275
T1 chain: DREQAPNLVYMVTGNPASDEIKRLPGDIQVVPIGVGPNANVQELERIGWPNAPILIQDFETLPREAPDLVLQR

B1: ADAMTS13 variant NGLY3 plus L591A/R636A/L637A/L668A (protein)
chain: AAGGILHLELLVAVGPDVFQAHQEDTERYVLTNLNIGAELLRDPSLGAQFRVHLVKMVILTEPEGAPNITANLTSSLLSVCGWSQTINPEDDTDPGHADLVLYITRFDLELPDGNRQVRGVTQLGGACSPTWSCLITEDTGFDLGVTIAHEIGHSFGLEHDGAPGSGCGPSGHVMASDGAAPRAGLAWSPCSRRQLLSLLSAGRARCVWDPPRPQPGSAGHPPDAQPGLYYSANEQCRVAFGPKAVACTFAREHLDMCQALSCHTDPLDQSSCSRLLVPLLDGTECGVEKWCSKGRCRSLVELTPIAAVHGRWSSWGPRSPCSRSCGGGVVTRRRQCNNPRPAFGGRACVGADLQAEMCNTQACEKTQLEFMSQQCARTDGQPLRSSPGGASFYHWGAAVPHSQGDALCRHMCRAIGESFIMKRGDSFLDGTRCMPSGPREDGTLSLCVSGSCRTFGCDGRMDSQQVWDRCQVCGGDNSTCSPRKGSFTAGRAREYVTFLTVTPNLTSVYIANHRPAFTHLAVRIGGRYVVAGNMSISPNTTYPSLLEDGRVEYRVALTEDAAPRLEEIRIWGPLQEDADIQVYRRYGEEYGNATRPDITFTYFQPKPRQAWVWAAVRGPCSVSCGAGLRWVNYSCLDQARKELVETVQCQGSQQPPAWPEACVLEPCPPYWAVGDFGPCSASCGGGLRERPVRCVEAQGSLLKTLPPARCRAGAQQPAVALETCNPQPCPARWEVSEPSSCTSAGGAGLALENETCVPGADGLEAPVTEGPGSVDEKLPAPEPCVGMSCPPGWGHLDATSAGEKAPSPWGSIRTGAQAAHVWTPAAGSCSVSCGRGLMELRFLCMDSALRVPVQEELCGLASKPGSRREVCQAVPCPARWQYKLAACSVSCGRGVVRRILYCARAHGEDDGEEILLDTQCQGLPRPEPQEACSLEPCPPRWKVMSLGPCSASCGLGTARRSVACVQLDQGQDVEVDEAACAALVRPEASVPCLIADCTYRWHVGTWMECSVSCGDGIQRRRDTCLGPQAQAPVPADFCQHLPKPVTVRGCWAGPCVGQGTPSLVPHEEAAAPGRTTATPAGASLEWSQARGLLFSPAPQPRRLLPGPQENSVQSSACGRQHLEPTGTIDMRGPGQADCAVAIGRPLGEVVTLRVLESSLNCSAGDMLLLWGRLTWRKMCRKLLDMTFSSKTNTLVVRQRCGRPGGGVLLRYGSQLAPETFYRECDMQLFGPWGEIVSPSLSPATSNAGGCRLFINVAPHARIAIHALATNMGAGTEGANASYILIRDTHSLRTTAFHGQQVLYWESESSQAEMEFSEGFLKAQASLRGQYWTLQSWVPEMQDPQSWKGKEGT
B2: ADAMTS13 variant R568A/Y665A (protein)
chain: B1 chain with R494A, A517L, N534K, A562R, A563L, Y591A, A594L
B3: ADAMTS13 variant NGLY3 + R568A/Y665A (protein)
chain: B1 chain with R494A, A517L, A562R, A563L, Y591A, A594L
B4: ADAMTS13 variant L591A/R636A/L637A/L668A (protein)
chain: B1 chain with N534K

Experiments:
[1] = target: T1, FRETS-VWF73 fluorogenic substrate, …
[2] = target: Von Willebrand Factor (VWF) multimers, P04275

Row | Protein | Activity level (% relative to wild type ADAMTS13) VWFFRETS73 (% relative to wild type ADAMTS13) [1] | Ability to process VWF multimers under denaturing conditions [2] | vortex assay: processing of VWF multimers under shear stress [2]
1 | B1 | 95 | ++ | Combinations of NGLY3 plus L591A/R636A/L637A/L668A and NGLY3 plus R568A/Y665A efficiently processed VWF multimers
2 | B2 | 120 | ++ | the proteolytic activity of R568A/Y665A and the L591A/R636A/L637A/L668A variants were reduced when compared to wild type ADAMTS13
3 | B3 | 120 | ++ | Combinations of NGLY3 plus L591A/R636A/L637A/L668A and NGLY3 plus R568A/Y665A efficiently processed VWF multimers
4 | B4 | 90 | ++ | the proteolytic activity of R568A/Y665A and the L591A/R636A/L637A/L668A variants were reduced when compared to wild type ADAMTS13
